Assay results reported in patent publication US20160257732A1 (published 2016).
Where “and” joins values, the source holds several entries; their conditions need not be identical. Equal values may be shown once. Read-outs that look alike come from different tables or passages of the source.

Assays:
Assay in all cases: cell-based or functional assay
[1] = target: HA of A/Fort Monmouth/1/47 (H1N1) (influenza A virus)
[2] = target: HA of A/New Jersey/8/76 (H1N1) (influenza A virus)
[3] = target: HA of A/Kawasaki/9/86 (H1N1) (influenza A virus)
[4] = target: HA of ca A/Texas/36/91 (H1N1) (influenza A virus)
[5] = target: HA of ca A/Beijing/262/95 (H1N1) (influenza A virus)
[6] = target: HA of ca A/New Caledonia/20/99 (H1N1) (influenza A virus)
[7] = target: HA of ca A/swine/Missouri/06 (H2N3) (influenza A virus)
[8] = target: HA of ca A/Vietnam/1203/04 (H5N1) (influenza A virus)
[9] = target: HA of ca A/Hong Kong/213/03 (H5N1) (influenza A virus)
[10] = target: HA of ca A/teal/Hong Kong/W312/97 (H6N1) (influenza A virus)
[11] = target: T1, HA of ca A/chicken/Hong Kong/G9/97 (H9N2) (influenza A virus)
[12] = target: HA of A/Hong Kong/8/68 (H3N2) (influenza A virus)
[13] = target: HA of A/Victoria/3/75 (H3N2) (influenza A virus)
[14] = target: HA of ca A/Sydney/5/97 (H3N2) (influenza A virus)
[15] = target: HA of ca A/Panama/2007/99 (H3N2) (influenza A virus)
[16] = target: HA of A/Wyoming/03/03 (H3N2) (influenza A virus)
[17] = target: HA of A/Wisconsin/67/05 (H3N2) (influenza A virus)
[18] = target: HA of ca A/Perth/16/09 (H3N2) (influenza A virus)
[19] = target: HA of ca A/Netherlands/219/03 (H7N7) (influenza A virus)
[20] = target: T2, HA of ca A/Brit. Columbia/CN-6/04 (H7N3-LP) (influenza A virus)
[21] = target: HA of A/Fort Monmouth/1/47 (H1N1) (influenza A virus); remark: listed apart in the source
[22] = target: HA of A/New Jersey/8/76 (H1N1) (influenza A virus); remark: listed apart in the source
[23] = target: HA of A/Kawasaki/9/86 (H1N1) (influenza A virus); remark: listed apart in the source
[24] = target: HA of ca A/Texas/36/91 (H1N1) (influenza A virus); remark: listed apart in the source
[25] = target: HA of ca A/Beijing/262/95 (H1N1) (influenza A virus); remark: listed apart in the source
[26] = target: HA of ca A/New Caledonia/20/99 (H1N1) (influenza A virus); remark: listed apart in the source
HA of virus H1-BS10 = target: HA of virus H1-BS10
[27] = target: HA of ca A/Japan/57 (H2N2) (influenza A virus)
[28] = target: HA of ca A/swine/Missouri/06 (H2N3) (influenza A virus); remark: listed apart in the source
[29] = target: HA of ca A/Vietnam/1203/04 (H5N1) (influenza A virus); remark: listed apart in the source
[30] = target: HA of ca A/Hong Kong/213/03 (H5N1) (influenza A virus); remark: listed apart in the source
[31] = target: HA of ca A/mallard/Alberta/89/85 (H6N2) (influenza A virus)
[32] = target: HA of ca A/teal/Hong Kong/W312/97 (H6N1) (influenza A virus); remark: listed apart in the source
[33] = target: T1, HA of ca A/chicken/Hong Kong/G9/97 …; remark: listed apart in the source
[34] = target: HA of A/Hong Kong/8/68 (H3N2) (influenza A virus); remark: listed apart in the source
[35] = target: HA of A/Victoria/3/75 (H3N2) (influenza A virus); remark: listed apart in the source
[36] = target: HA of ca A/Sydney/5/97 (H3N2) (influenza A virus); remark: listed apart in the source
[37] = target: HA of ca A/Panama/2007/99 (H3N2) (influenza A virus); remark: listed apart in the source
[38] = target: HA of A/Wisconsin/67/05 (H3N2) (influenza A virus); remark: listed apart in the source
[39] = target: HA of ca A/Perth/16/09 (H3N2) (influenza A virus); remark: listed apart in the source
[40] = target: HA of A/Victoria/361/11 (H3N2) (influenza A virus)
[41] = target: HA of ca A/Netherlands/219/03 (H7N7) (influenza A virus); remark: listed apart in the source
[42] = target: T2, HA of ca A/Brit. Columbia/CN-6/04 …; remark: listed apart in the source
[43] = target: HA of swine-origin A/Minnesota/11/2010 H3N2 virus (influenza A virus)

Binder | Neutralization IC50, H1-FM47 [21] | Neutralization IC50, H1-NJ76 [22] | Neutralization IC50, H1-Kaw86 [23] | Neutralization IC50, H1-TX91 [24] | Neutralization IC50, H1-BJ95 [25] | Neutralization IC50, H1-Ncal99 [26] | Neutralization IC50, H1-BS10 (HA of virus H1-BS10) | Neutralization IC50, H2-JP57 [27] | Neutralization IC50, H2-MO06 [28] | Neutralization IC50, H5-VM04 [29] | Neutralization IC50, H5-HK03 [30] | Neutralization IC50, H6-AB85 [31] | Neutralization IC50, H6-HK97 [32] | Neutralization IC50, H9-HK97 [33] | Neutralization IC50, H3-HK68 [34] | Neutralization IC50, H3-Vic75 [35] | Neutralization IC50, H3-Syd97 [36] | Neutralization IC50, H3-Pa99 [37] | Neutralization IC50, H3-WI05 [38] | Neutralization IC50, H3-Perth09 [39] | also measured
Antibody 5 (antibody, V domains shown) VH: QVQLQQSGPGLVKPSQTLSLTCAISGDRVSSNSAVWNWIRQSPSRGLEWLGRTYYRSKWYYDYAESVKSRIVIDPDTSKNQVSLQLNSVTPEDSAIYYCARGGHITVFGLNIDAYDIWGQGAMVTVSS VL: DIQMTQSPSSLSASVGDRVTISCRAQSLSSYLHWYQQKPGQPPKLLIYAATTLQSGVPSRFSGSGSGTDFTLTISTFQAEDVATYYCQQSRTFGQGTKVEIK |  |  |  |  |  |  |  |  |  |  |  |  |  |  |  |  |  |  |  |  | Neutralization IC50, H1-FM47 [1]: 0.86 µg/mL; Neutralization IC50, H1-NJ76 [2]: 1.64 µg/mL; Neutralization IC50, H1-Kaw86 [3]: 1.01 µg/mL; Neutralization IC50, H1-TX91 [4]: 0.76 µg/mL; Neutralization IC50, H1-BJ95 [5]: 5.06 µg/mL; Neutralization IC50, H1-Ncal99 [6]: 0.85 µg/mL; Neutralization IC50, H2-MO06 [7]: 2.38 µg/mL; Neutralization IC50, H5-VM04 [8]: 2.6 µg/mL; Neutralization IC50, H5-HK03 [9]: 1.18 µg/mL; Neutralization IC50, H6-HK97 [10]: 2.27 µg/mL; Neutralization IC50, H9-HK97 [11]: 2.43 µg/mL; Neutralization IC50, H3-HK68 [12]: 0.39 µg/mL; Neutralization IC50, H3-Vic75 [13]: 0.57 µg/mL; Neutralization IC50, H3-Syd97 [14]: 3.03 µg/mL; Neutralization IC50, H3-Pa99 [15]: 16.7 µg/mL; Neutralization IC50, H3-Wy03 [16]: 0.77 µg/mL; Neutralization IC50, H3-WI05 [17]: 2.83 µg/mL; Neutralization IC50, H3-Perth09 [18]: 2.22 µg/mL; Neutralization IC50, H7-NLD03 [19]: 4.14 µg/mL; Neutralization IC50, H7-BC04 [20]: 5.35 µg/mL
Antibody 10 (antibody, V domains shown) VH: QVQLQQSGPGLVKPSQTLSLTCAISGDSVSSNSATWNWIRQSPSRGLEWLGRTYYRSKWYNDYADFLKRRITINPDTSNNEVSLRLTSVTPDDTALYYCARGGHITVFGVNIDAFDVWGQGTMVTVSS VL: DIQMTQSPSSLSASVGDRITISCRTSQSLRSYLHWYQQKPGKAPKLLIYASSTLQSGVPSRFSGSGSGTDFTLTISNLQPEDFATYYCQLSRTFGQGTKVEIK |  |  |  |  |  |  |  |  |  |  |  |  |  |  |  |  |  |  |  |  | Neutralization IC50, H1-FM47 [1]: 1.11 µg/mL; Neutralization IC50, H1-NJ76 [2]: 0.15 µg/mL; Neutralization IC50, H1-Kaw86 [3]: 1.62 µg/mL; Neutralization IC50, H1-TX91 [4]: 0.48 µg/mL; Neutralization IC50, H1-BJ95 [5]: 4.46 µg/mL; Neutralization IC50, H1-Ncal99 [6]: 1.26 µg/mL; Neutralization IC50, H2-MO06 [7]: 1.04 µg/mL; Neutralization IC50, H5-VM04 [8]: 2.21 µg/mL; Neutralization IC50, H5-HK03 [9]: 1.6 µg/mL; Neutralization IC50, H6-HK97 [10]: 1.05 µg/mL; Neutralization IC50, H9-HK97 [11]: 1.76 µg/mL; Neutralization IC50, H3-HK68 [12]: 0.85 µg/mL; Neutralization IC50, H3-Vic75 [13]: 0.91 µg/mL; Neutralization IC50, H3-Syd97 [14]: 9.29 µg/mL; Neutralization IC50, H3-Pa99 [15]: 18.7 µg/mL; Neutralization IC50, H3-Wy03 [16]: 1.52 µg/mL; Neutralization IC50, H3-WI05 [17]: 4.46 µg/mL; Neutralization IC50, H3-Perth09 [18]: 2.56 µg/mL; Neutralization IC50, H7-NLD03 [19]: 3.8 µg/mL; Neutralization IC50, H7-BC04 [20]: 3.59 µg/mL
Antibody 13 (antibody, V domains shown) VH: QVQLQQSGPGLVKPSQTLSLTCAISGDSVSSYNAVWNWIRQSPSRGLEWLGRTYYRSGWYNDYAESVKSRITINPDTSKNQFSLQLNSVTPEDTAVYYCARSGHITVFGVNVDAFDMWGQGTMVTVSS VL: DIQMTQSPSSLSASVGDRVTITCRTSQSLSSYDHWYQQKPGKAPKLLIYAASSRLSGVPSRFSGSGSGTDFTLTISSLQPEDFATYYCQQSRTFGQGTKVEIK | 0.5 µg/mL | 0.12 µg/mL | 0.41 µg/mL | 0.09 µg/mL | 1.86 µg/mL | 0.77 µg/mL | 1.23 µg/mL | 0.47 µg/mL | 0.57 µg/mL | 0.56 µg/mL | 0.17 µg/mL | 0.29 µg/mL | 0.55 µg/mL | 0.29 µg/mL | 0.44 µg/mL | 0.43 µg/mL | 2.18 µg/mL | 2.62 µg/mL | 1.19 µg/mL | 0.28 µg/mL | Neutralization IC50, H3-VC11 [40]: 1.03 µg/mL; Neutralization IC50, H7-NLD03 [41]: 2.45 µg/mL; Neutralization IC50, H7-BC04 [42]: 0.96 µg/mL; Neutralizing activity IC50, swine-origin A/Minnesota/11/2010 [43]: 1.6 µg/mL and 1.4 µg/mL
Antibody 15 (antibody, V domains shown) VH: QVQLQQSGPGLVKPSQTLSLTCAISGDSVSSNNAVWNWIRQSPSRGLEWLGRTYYRSKWYNDYAESVKSRITINPDTSKNQFSLQLNSVTPEDTAVYYCARSGHITVFGVNVDAFDMWGQGTTVTVSS VL: DIQMTQSPSSLSASVGDRVTITCRTSQSLSSYTHWYQQKPGKAPKLLIYAASSRGSGVPSRFSGSGSGTDFTLTISSLQPEDFATYYCQQSRTFGQGTKVEIK | 0.35 µg/mL | 0.25 µg/mL | 0.48 µg/mL | 0.13 µg/mL | 1.81 µg/mL | 0.79 µg/mL | 1.89 µg/mL | 0.33 µg/mL | 0.83 µg/mL | 0.28 µg/mL | 0.05 µg/mL | 0.19 µg/mL | 0.33 µg/mL | 0.35 µg/mL | 0.5 µg/mL | 0.35 µg/mL | 1.79 µg/mL | 3.39 µg/mL | 1.3 µg/mL | 0.5 µg/mL | Neutralization IC50, H3-VC11 [40]: 1.29 µg/mL; Neutralization IC50, H7-NLD03 [41]: 1.3 µg/mL; Neutralization IC50, H7-BC04 [42]: 1.25 µg/mL; Neutralizing activity IC50, swine-origin A/Minnesota/11/2010 [43]: 0.9 µg/mL and 2.7 µg/mL
Antibody 11 (antibody, V domains shown) VH: QVQLQQSGPGLVKPSQTLSLTCAISGDSVSSYNAVWNWIRQSPSRGLEWLGRTYYRSGWYNDYAESVKSRITINPDTSKNQFSLQLNSVTPEDTAVYYCARSGHITVFGVNVDAFDMWGQGTMVTVSS VL: DIQMTQSPSSLSASVGDRVTITCRTSQSLSSYTHWYQQKPGKAPKLLIYAASSRLSGVPSRFSGSGSGTDFTLTISSLQPEDFATYYCQQSRTFGQGTKVEIK | 0.43 µg/mL | 0.13 µg/mL | 0.53 µg/mL | 0.11 µg/mL | 1.01 µg/mL | 0.66 µg/mL | 1.15 µg/mL | 0.31 µg/mL | 0.6 µg/mL | 0.57 µg/mL | 0.21 µg/mL | 0.24 µg/mL | 0.4 µg/mL | 0.36 µg/mL | 0.46 µg/mL | 0.46 µg/mL | 1.53 µg/mL | 2.18 µg/mL | 1.07 µg/mL | 0.17 µg/mL | Neutralization IC50, H3-VC11 [40]: 0.85 µg/mL; Neutralization IC50, H7-NLD03 [41]: 0.94 µg/mL; Neutralization IC50, H7-BC04 [42]: 0.71 µg/mL; Neutralizing activity IC50, swine-origin A/Minnesota/11/2010 [43]: 1.6 µg/mL and 1.5 µg/mL
